Key:
[1] = molecular target: His-tagged StBIN2 protein (potato (Solanum tuberosum))
[2] = molecular target: StBIN2-M (potato (Solanum tuberosum))

Substance “His-tagged StSN2 protein (from UniProt Q93X17 24-104) (natural protein)” has a StBIN2 kinase activity as ATP consumption (Kinase-Lumi), 5 μg StBIN2 with varying masses of StSN2 up to 15 μg, against StBIN2 alone [1] of 10 fold and an ATP consumed by StBIN2-M with StSN2 against StBIN2 with StSN2; 5 μg kinase + 5, 10 and 15 μg StSN2 (reduced by 63%, 14% and 12%) [2] of 63 % reduction.

From PMC10753161
